Data published in patent US20160289685.

Columns and labels:
[1] = biological target: Recombinant human STAT1α (OriGene Technologies, Inc.) (UniProt P42224)
[2] = biological target: T1, Recombinant human STAT1α (OriGene Technologies, Inc.), P42224
T1 chain: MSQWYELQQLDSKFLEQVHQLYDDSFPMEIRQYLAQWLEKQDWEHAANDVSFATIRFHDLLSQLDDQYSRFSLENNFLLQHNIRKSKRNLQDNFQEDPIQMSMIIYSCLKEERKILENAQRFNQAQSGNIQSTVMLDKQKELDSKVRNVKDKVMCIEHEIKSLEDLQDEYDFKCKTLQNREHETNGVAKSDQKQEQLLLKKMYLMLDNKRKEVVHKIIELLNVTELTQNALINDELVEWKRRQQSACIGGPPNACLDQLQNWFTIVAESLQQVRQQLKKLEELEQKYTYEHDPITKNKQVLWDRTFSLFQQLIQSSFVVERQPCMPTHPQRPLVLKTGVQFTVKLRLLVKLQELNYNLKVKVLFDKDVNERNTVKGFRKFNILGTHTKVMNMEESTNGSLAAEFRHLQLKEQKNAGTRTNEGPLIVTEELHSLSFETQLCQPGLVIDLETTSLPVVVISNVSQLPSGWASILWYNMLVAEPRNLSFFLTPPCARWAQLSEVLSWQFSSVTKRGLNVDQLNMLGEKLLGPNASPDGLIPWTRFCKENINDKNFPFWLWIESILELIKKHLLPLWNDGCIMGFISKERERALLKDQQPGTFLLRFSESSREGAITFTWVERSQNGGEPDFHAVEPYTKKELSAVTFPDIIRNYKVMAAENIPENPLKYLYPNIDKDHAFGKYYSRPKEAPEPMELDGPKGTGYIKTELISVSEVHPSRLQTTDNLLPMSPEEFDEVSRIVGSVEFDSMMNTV

Recombinant human PARP9 (BPS Bioscience Inc.)
ADP-ribosylation (protein ribosylation assay) [1]: PARP9 did not ADP-ribosylate STAT1α

B1: Recombinant human PARP14 (BPS Bioscience Inc.) (protein)
chain: KEYQELNELQKKLNINISLDHKRPLIKVLGISRDVMQARDEIEAMIKRVRLAKEQESRADCISEFIEWQYNDNNTSHCFNKMTNLKLEDARREKKKTVDVKINHRHYTVNLNTYTATDTKGHSLSVQRLTKSKVDIPAHWSDMKQQNFCVVELLPSDPEYNTVASKFNQTCSHFRIEKIERIQNPDLWNSYQAKKKTMDAKNGQTMNEKQLFHGTDAGSVPHVNRNGFNRSYAGKNAVAYGKGTYFAVNANYSANDTYSRPDANGRKHVYYVRVLTGIYTHGNHSLIVPPSKNPQNPTDLYDTVTDNVHHPSLFVAFYDYQAYPEYLITFRK
ADP-ribosylation (protein ribosylation assay, Western blot with Streptavidin-HRP) [2]: Recombinant PARP14 protein induced ADP-ribosylation of PARP14 itself, PARP9, and STAT1α
mono-ADP-ribosylation sites by LC-MS/MS [2]: Glu657 and Glu705 of STAT1α were mono-ADP-ribosylated by PARP14
